According to patent publication US20240207429A1 (PROFOUNDBIO US, published 2024):

B1: F1 (antibody, V domains shown)
VH: EVQLLESGGGVVQPGRSLRLSCAASGFTFSSYGMHWVRQAPGKGLEWVAVISYDGSNKYYADSVKGRFTISRDNSKNTLYLQMNSLRAEDTAVYYCARPRAYYGAYGSSFDYWGQGTQVTVSS
VL: EIVMTQSPSSVSASVGDRVAITCRASQGISSWLAWYQQKPGKAPKLLIYAASSLQSGVPSRFSGSGSGTDFTLTISSLQPEDFATYYCQQSYSTPLTFGGGTKVDIK
notes: also called clone F1; anti-FOLR1 antibody F1
B2: F8 (antibody, V domains shown)
VH: EVQLLESGGGVVQHGRSLRLSCAASGFTFSSYGMHWVRQAPGKGLEWVAVISYDGSNKYYADSVKGRFTISRDNSKNTLYLQMNSLRAEDTAVYYCARPRAYYGAYGSSFDYWGQGTQVTVSS
VL: EIVMTQSPSSVSASVGDRVAITCRASQGISSWLAWYQQKPGKAPKLLIYAASSLQSGVPSRFSGSGSGTDFTLTISSLQPEDFATYYCQQSYSTPLTFGGGTKVDIK
notes: also called clone F8; anti-FOLR1 antibody F8
B3: F26 (antibody, V domains shown)
VH: EVQLLESGGGVVQRGRSLRLSCAASGFTFSSYGMHWVRQAPGKGLEWVAVISYDGSNKYYADSVKGRFTISRDNSKNTLYLPMNSLRAEDTAVYYCARPRAYYGAYGSSFDYWGQGTQVTVSS
VL: EIVMTQSPSSVSASVGDRVAITCRASQGISSWLAWYQQKPGKAPKLLIYAASSLQSGVPSRFSGSGSGTDFTLTISSLQPEDFATYYCQQSYSTPLTFGGGTKVDIK
notes: also called clone F26; anti-FOLR1 antibody F26
B4: F48 (antibody, V domains shown)
VH: EVQLLESGGGVVQPGRSLRLSCAASGFTFSSYGMHWVRQAPGKGLEWVAVISYDGSNKYYADSVKGRFTISRDNSKNTLYLHMNSLRAEDTAVYYCARPRAYYGAYGSSFDYWGQGTQVTVSS
VL: EIVMTQSPSSVSASVGDRVAITCRASQGISSWLAWYQQKPGKAPKLLIYAASSLQSGVPSRFSGSGSGTDFTLTISSLQPEDFATYYCQQSYSTPLTFGGGTKVDIK
notes: also called clone F48; anti-FOLR1 antibody F48
B5: F100 (antibody, V domains shown)
VH: EVQLLESGGGVVQPGRSLRLSCAASGFTFSSYGMHWVRQAPGKGLEWVAVISYDGSNKYYADSVKGRFTISRPNSKNTLYLQMNSLRAEDTAVYYCARPRAYYGAYGSSFDYWGQGTQVTVSS
VL: EIVMTQSPSSVSASVGDRVAITCRASQGISSWLAWYQQKPGKAPKLLIYAASSLQSGVPSRFSGSGSGTDFTLTISSLQPEDFATYYCQQSYSTPLTFGGGTKVDIK
notes: also called clone F100; anti-FOLR1 antibody F100
B6: F112 (antibody, V domains shown)
VH: EVQLLESGGGVVQPGRSLRLSCAASGFTFSSYGMHWVRQAPGKGLEWVAVISYDGSNKYYADSVKGRFTISRHNSKNTLYLQMNSLRAEDTAVYYCARPRAYYGAYGSSFDYWGQGTQVTVSS
VL: EIVMTQSPSSVSASVGDRVAITCRASQGISSWLAWYQQKPGKAPKLLIYAASSLQSGVPSRFSGSGSGTDFTLTISSLQPEDFATYYCQQSYSTPLTFGGGTKVDIK
notes: also called clone F112; anti-FOLR1 antibody F112
B7: F123 (antibody, V domains shown)
VH: EVQLLESGGGVVQPERSLRLSCAASGFTFSSYGMHWVRQAPGKGLEWVAVISYDGSNKYYADSVKGRFTISRANSKNTLYLQMNSLRAEDTAVYYCARPRAYYGAYGSSFDYWGQGTQVTVSS
VL: EIVMTQSPSSVSASVGDRVAITCRASQGISSWLAWYQQKPGKAPKLLIYAASSLQSGVPSRFSGSGSGTDFTLTISSLQPEDFATYYCQQSYSTPLTFGGGTKVDIK
notes: also called clone F123; anti-FOLR1 antibody F123
B8: F131 (antibody, V domains shown)
VH: EVQLLESGGGVVQPGRSLRLSCAASGFTFSSYGMHWVRQAPGKGLEWVAVISYDGSNKYYADSVKGRFTISRANSKNTLYLQMNSLRAEDTAVYYCARPRAYYGAYGSSFDYWGQGTQVTVSS
VL: EIVMTQSPSSVSASVGDRVAITCRASQGISSWLAWYQQKPGKAPKLLIYAASSLQSGVPSRFSGSGSGTDFTLTISSLQPEDFATYYCQQSYSTPLTFGGGTKVDIK
notes: also called clone F131; F131 mAb
B9: F138 (antibody, V domains shown)
VH: EVQLLESGGGVVQPGRSLRLSCAASGFTFSSYGMHWVRQAPGKGLEWVAVISYDGSNKYYADSVKGRFTISTHNSKNTLYLQMNSLRAEDTAVYYCARPRAYYGAYGSSFDYWGQGTQVTVSS
VL: EIVMTQSPSSVSASVGDRVAITCRASQGISSWLAWYQQKPGKAPKLLIYAASSLQSGVPSRFSGSGSGTDFTLTISSLQPEDFATYYCQQSYSTPLTFGGGTKVDIK
notes: also called clone F138; anti-FOLR1 antibody F138
B10: F40 (antibody, V domains shown)
VH: EVQLLESGGGVVQPGRSLRLSCAASGFTFSSYAMHWVRQAPGKGLEWVAVISYDGSNKYYADSVKGRFIISRDNSKNTVYLQMNSLRAEDTAVYYCARPTYVFTYTGSSFDYWGQGTQVTVSS
VL: DIQVTQSPSSLSASLGDTVSITCRASRGLTDSVAWYQQKPGQAPKLLIYAASTLQSGVPSRFGGSGSGSYFTLTITSLQPEDVATYYCQNYKSAPWTFGQGTKVEIK
notes: also called clone F40; anti-FOLR1 antibody F40

How the values were obtained:
[1] = target: T1, Human FOLR1 Protein His Tag (ACRO-FO1-H52H1) (human, UniProt P15328 25-233); assay: ELISA, supernatant diluted 1x
T1 construct: not shown: His tag
T1 sequence (P15328 25-233 limits assumed): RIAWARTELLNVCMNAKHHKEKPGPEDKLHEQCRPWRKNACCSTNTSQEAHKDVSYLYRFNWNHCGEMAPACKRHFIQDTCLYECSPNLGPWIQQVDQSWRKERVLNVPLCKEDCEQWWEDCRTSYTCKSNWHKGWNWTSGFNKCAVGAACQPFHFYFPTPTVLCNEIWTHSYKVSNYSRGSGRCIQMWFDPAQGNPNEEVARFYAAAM

[2] = target: T2, Cynomolgus/Rhesus macaque FOLR1 Protein, His Tag (ACRO, F01-C52H8) (cynomolgus, UniProt A0A2K5U044 25-233); assay: ELISA, supernatant diluted 1x
T2 construct: also called cynomolgus FOLR1 protein; not shown: His tag
T2 sequence (A0A2K5U044 entry or part of it): as the sequence (P15328 25-233 limits assumed) above, with I2T, W4R, R37K, A146P, H171Y counted along it

[3] = target: T1, Human FOLR1 Protein His Tag …; assay: ELISA, supernatant diluted 5x
[4] = target: T2, Cynomolgus/Rhesus macaque FOLR1 …; assay: ELISA, supernatant diluted 5x
[5] = target: T1, Human FOLR1 Protein His Tag …; assay: ELISA, supernatant diluted 25x
[6] = target: T2, Cynomolgus/Rhesus macaque FOLR1 …; assay: ELISA, supernatant diluted 25x
[7] = target: T1, Human FOLR1 Protein His Tag …; assay: ELISA, HEK293 supernatant on coated antigen

Row | Binder | OD450 [1] | OD450 [2] | OD450 [3] | OD450 [4] | OD450 [5] | OD450 [6] | OD450 [7]
1 | B1 | 1.66 | 1.38 | 1.45 | 1.26 | 1.18 | 0.994 | 2.43
2 | B2 | 1.67 | 0.896 | 1.65 | 1.28 | 1.31 | 1.06 | 2.45
3 | B3 | 1.64 | 1.24 | 1.51 | 1.21 | 1.48 | 1.02 | 2.43
4 | B4 | 1.56 | 1.15 | 1.59 | 1.04 | 1.29 | 0.908 | 2.54
5 | B5 | 1.61 | 1.16 | 1.53 | 1.03 | 1.18 | 0.875 | 2.3
6 | B6 | 1.56 | 1.26 | 1.42 | 1.21 | 1.17 | 0.933 | 2.35
7 | B7 | 1.72 | 1.36 | 1.47 | 1.3 | 1.33 | 1.07 | 2.32
8 | B8 | 1.61 | 1.2 | 1.52 | 1.27 | 1.38 | 1.09 | 2.35
9 | B9 | 1.64 | 1.14 | 1.69 | 1.14 | 0.827 | 1.17 | 2.41
10 | B10 | 0.811 | 1.35 | 0.382 | 1.11 | 0.163 | 0.924 | 2.39
